Results published in PMC8939769, “The SARS-CoV-2 monoclonal antibody combination, AZD7442, is protective in non-human primates and has an extended half-life in humans” (Science Translational Medicine, 2022).

Experiments:
[1] = target: T1, SARS-CoV-2 S trimer (S2P ectodomain protein) (SARS-CoV-2, ancestral (Wuhan-Hu-1 …, UniProt P0DTC2, stabilised)); assay: cell-based or functional assay
[2] = target: T1, SARS-CoV-2 S trimer (S2P ectodomain …); assay: not stated; binding kinetics (ka, kd, KD) on the SARS-CoV-2 S trimer (S2P ectodomain protein); representative of at least two independent assays; assay details in the Supplementary materials; conditions: both partners purified

B1: AZD8895 (tixagevimab) (antibody, V domains shown)
VH: QMQLVQSGPEVKKPGTSVKVSCKASGFTFMSSAVQWVRQARGQRLEWIGWIVIGSGNTNYAQKFQERVTITRDMSTSTAYMELSSLRSEDTAVYYCAAPYCSSISCNDGFDIWGQGTMVTVSS
VL: not shown
neutralization of the USA-WA1/2020 strain of SARS-CoV-2 in vitro, IC50 [1]: 9 ng/mL | Kd [2]: 2.8 pM
